The results in this text go back to US11116820B2, “Treatment of hyperinsulinemic hypoglycemia with exendin-4 derivatives” (priority 2016, dated 2021).

For assay [1], the target named is T1, mouse GLP-1 receptor (Mus musculus, UniProt O35659).
T1 construct: cells that endogenously express the mouse GLP-1 receptor; endogenous in cells; host or cells: βTC6 cells (mouse)
T1 sequence (O35659 22-463): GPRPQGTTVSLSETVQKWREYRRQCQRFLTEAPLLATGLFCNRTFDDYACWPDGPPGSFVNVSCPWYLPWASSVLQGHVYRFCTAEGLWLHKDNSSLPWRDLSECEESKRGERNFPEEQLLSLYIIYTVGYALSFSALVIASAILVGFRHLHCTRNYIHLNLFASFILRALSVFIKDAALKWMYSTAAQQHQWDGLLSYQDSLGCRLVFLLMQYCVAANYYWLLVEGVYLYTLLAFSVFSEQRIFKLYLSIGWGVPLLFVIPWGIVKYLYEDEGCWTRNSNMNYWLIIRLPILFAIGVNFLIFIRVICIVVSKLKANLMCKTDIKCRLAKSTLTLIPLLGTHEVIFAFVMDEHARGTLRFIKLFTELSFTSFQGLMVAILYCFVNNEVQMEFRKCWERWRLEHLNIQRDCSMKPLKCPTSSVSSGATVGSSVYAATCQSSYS
As to the kind of experiment: cAMP functional assay (HTRF), agonist mode, in βTC6 cells. It counts as cell-based. The following applies: peptides dissolved at 10 mM in PBS, 10 minutes at room temperature. How it is done:
The agonistic and antagonistic effects of each of the four peptides on the receptor GLP-1 was tested in βTC6 cells, which are cells that endogenously express the mouse GLP-1 receptor, in a cAMP functional assay. […] Following the incubation period, the resulting intracellular level of cAMP was measured by homogenous time resolved fluorescence (HTRF).

In assay [2] the target is T1, mouse GLP-1 receptor. As to the kind of experiment: cAMP functional assay (HTRF), antagonist mode, βTC6 cells stimulated with 0.3 nM GLP-1 (7-37). The class given is cell-based. The following applies: 10 minutes at room temperature. How it is done: The agonistic and antagonistic effects of each of the four peptides on the receptor GLP-1 was tested in βTC6 cells, which are cells that endogenously express the mouse GLP-1 receptor, in a cAMP functional assay.
Following the incubation period, the resulting intracellular level of cAMP was measured by HTRF.
(In general: In TR-FRET formats the signal depends on donor and acceptor labels being close together.)

Consider “pegylated exendin(9-39): pegylated form of exendin(9-39), tested as comparator peptide”, for which the “agonistic activity on GLP-1 receptor (intracellular cAMP)” value with mouse GLP-1 receptor [1] was “None of the four peptides exhibited agonistic activity”. Besides, the “antagonistic activity on GLP-1 receptor, overall (in words)” value in the assay with mouse GLP-1 receptor [2] is recorded as “did not exhibit significant antagonistic activity”.
